Results reported in the supplement of paper PMC10567573.
± gives the standard deviation.

Assay: protein stability index of a GFP-peptide fusion (GPS, HEK-293T) (PSI 1-6); higher = more stable
[1] = treatment: DMSO, c terminus: a fixed tail appended
[2] = treatment: MLN4924 1 uM, 8 h, c terminus: a fixed tail appended
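Further: 24-mer peptide tiles fused after GFP, lentivirally expressed, FACS-sorted into six equal bins by GFP/DsRed ratio, decoded by Illumina sequencing, PSI is the read-weighted mean bin number.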

Row | Sequence | protein stability index [1] | protein stability index [2] | protein stability index (treatment: DMSO, c terminus: native) | protein stability index (treatment: MLN4924 1 uM, 8 h, c terminus: native)
1 | HAACLKCAECSQYLDETCTCFVRD [ISL2] | 4.67 ± 0.22 | 4.83 ± 0.23 | – | –
2 | DHSSRELSKILAKLERLKQQNEDL [FUT8] | 3.89 ± 0.12 | 4.03 ± 0.16 | – | –
3 | LVGIFILAVSRPRSSPDDLKALTR [SCARA5] | 2.84 ± 0.39 | 2.84 ± 0.69 | – | –
4 | KGCKVTLPEKPVKLASHTRDTTGV [FBF1] | 4.21 ± 0.24 | 4.58 ± 0.17 | – | –
5 | PGEEKFENLEGVPSVCSENIHPQV [ZNF263] | 4.96 ± 0.23 | 4.96 ± 0.38 | – | –
6 | RGIHNIQKRYHCKECGKVFSQSAG [ZSCAN9] | 2.58 ± 0.27 | 2.78 ± 0.24 | – | –
7 | KEGGQAGSGQRVPALEEAPDSHQK [ELOA2] | 5.32 ± 0.21 | 5.47 ± 0.28 | – | –
8 | RNLDASPTYKGLLMSLQNQLKESK [CEP70] | 3.19 ± 0.083 | 3.36 ± 0.25 | – | –
9 | RTHTGEQPYTCSICRRNFSRRSSL [ZNF75A] | 3.19 ± 0.44 | 3.67 ± 0.47 | – | –
10 | RRGSTPLHMAVERRVRGVVELLLA [RIPK4] | 2.9 ± 0.085 | 2.67 ± 0.045 | – | –
11 | NRQCLCSAESMVEYGTCMCLVKGI [SPRY1] | 3.82 ± 0.28 | 3.83 ± 0.26 | – | –
12 | LPSHPLELSEKNFQLNQDKMNFST [POMP] | 3.84 ± 0.29 | 3.78 ± 0.21 | – | –
13 | LWWIAPGDETAHRIDSQFLIGDTL [MYORG] | 1.95 ± 0.23 | 2.06 ± 0.43 | – | –
14 | HNGKIYISGGVHNGEYVPWLYCYD [KLHL14] | 2.13 ± 0.68 | 2.32 ± 0.48 | – | –
15 | SMEIYGSAVADKLDNSRSILKRRY [CTDNEP1] | 3.28 ± 0.22 | 3.71 ± 0.41 | – | –
16 | SLYRDIRDIQDENQLLVADVKRLG [STX11] | 3.67 ± 0.33 | 3.58 ± 0.22 | – | –
17 | NILIYETPRGPDPALLEATGGAAG [KCTD13] | 3.88 ± 0.19 | 3.84 ± 0.45 | – | –
18 | HCKAGLGRTGTLIACYVMKHYRFT [CDC14A] | 3.52 ± 0.52 | 2.76 ± 0.37 | – | –
19 | PSLSTITSTSSSITSSIPDTERLD [DVL3] | 5.23 ± 0.17 | 5.28 ± 0.16 | – | –
20 | NVPNVCRMYCSDLLNPNLKDTVIC [SPACA3] | 2.15 ± 0.3 | 2.31 ± 0.28 | – | –
21 | NGSCENSDASSHANAAKHTQDSAR [EHMT1] | 5.27 ± 0.37 | 5.3 ± 0.2 | – | –
22 | VQYGAGVACSETAPDLVLNAEMVQ [LOXL2] | 4.108 ± 0.007 | 4.47 ± 0.25 | – | –
23 | PAEDPDDYDDGFSMKHTATARFQR [SMARCE1] | 4.81 ± 0.13 | 4.89 ± 0.17 | – | –

Row | Sequence | protein stability index [1] | protein stability index [2] | protein stability index (treatment: DMSO, c terminus: native) | protein stability index (treatment: MLN4924 1 uM, 8 h, c terminus: native)
24 | LQSTYATPVDMWSVGCIFAEMFRR [CDK4] | 2.32 ± 0.42 | 2.37 ± 0.41 | – | –
25 | AFLEPDETFIVPDSFLVALDMDDG [SPSB1] | 3.46 ± 0.25 | 3.65 ± 0.48 | – | –
26 | SSVECYNLETNEWRYVSSLPQPLA [KLHL14] | 2.6 ± 0.19 | 2.92 ± 0.24 | – | –
27 | KCKSTLSPPEASPGPPAAPRARRR [PWWP2B] | 5.19 ± 0.12 | 5.34 ± 0.26 | – | –
28 | LLRHGMDRLWRPSKVLSLQDLCCR [RAB40B] | 3.03 ± 0.09 | 2.97 ± 0.25 | – | –
29 | AEALYQTKFQELQLAAGRHGDDLK [KRT71] | 4.61 ± 0.28 | 4.71 ± 0.13 | – | –
30 | AIFWIVFLLLIVFYTAITKKIFKS [P2RY14] | 2.42 ± 0.6 | 2.27 ± 0.2 | – | –
31 | PAAPTPESFTVHFLPLNSAQTLHH [DNAAF3] | 2.87 ± 0.22 | 3.02 ± 0.23 | – | –
32 | YEAQDGRGPDNALLEATGGAAGRS [KCTD10] | 5.37 ± 0.34 | 5.41 ± 0.25 | – | –
33 | LDKMLDPQVWREAATQVFFALGLG [SLC6A17] | 2.52 ± 0.68 | 2.25 ± 0.28 | – | –
34 | TVGVYEAAKLLNVDPDNVVLCLLA [GADD45A] | 2.26 ± 0.17 | 2.4 ± 0.22 | – | –
35 | IVFPEKLNGSVLPGSGAPARLLCR [ADAMTS4] | 2.87 ± 0.26 | 2.59 ± 0.4 | – | –
36 | MSAKLGKSSSLLTQTSEECNGILT [ZNF396] | 3.99 ± 0.16 | 4.2 ± 0.22 | – | –
37 | GAYSSASSFSRPLGYPYVNSVSSH [DLX1] | 3.1 ± 0.15 | 3.12 ± 0.25 | – | –
38 | FRDAAEEGGTAVTGGQTVVNPWII [SEPHS2] | 3.45 ± 0.2 | 3.54 ± 0.26 | – | –
39 | LATQSLTVETCRALGKLLPRETLC [LRRC45] | 2.44 ± 0.49 | 2.48 ± 0.45 | – | –
40 | VNAVRKLLIEGRSVNEHTEEGESL [ANKRD17] | 4.73 ± 0.24 | 4.79 ± 0.35 | – | –
41 | PLLLKEILKHTPKEHPDVQLLEDA [NET1] | 3.82 ± 0.41 | 4.06 ± 0.21 | – | –
42 | CHEEVYAGSHQYPGRGVYLLKFDN [ACBD3] | 2 ± 0.64 | 2.16 ± 0.8 | – | –
43 | PYQVNGVNPAYPESRYTSDYFISY [ETS1] | 2.18 ± 0.18 | 2.27 ± 0.21 | – | –
44 | GPSVSEPPGLPRVSAYVDTTADLD [SPATS1] | 5.16 ± 0.41 | 5.18 ± 0.25 | – | –
45 | RFRDFVDALEDSLEEVAVQQTGDD [PBXIP1] | 4.87 ± 0.44 | 4.9 ± 0.27 | – | –
46 | ARIQQSRRQCHAEEDQSQVPEAG [SMIM2] | – | – | 3.25 ± 0.4 | 3.29 ± 0.31

Row | Sequence | protein stability index [1] | protein stability index [2] | protein stability index (treatment: DMSO, c terminus: native) | protein stability index (treatment: MLN4924 1 uM, 8 h, c terminus: native)
47 | VKKSCWTEEEDRIICEAHKVLGNR [MYBL2] | 3.33 ± 0.52 | 3.58 ± 0.34 | – | –
48 | QVIHPQEFRRWRDTGVAFELRDSS [DNAAF3] | 3.29 ± 0.36 | 3.31 ± 0.32 | – | –
49 | KHLARQLEEKDRVLKKQDAFYKEQ [CHCHD3] | 4.33 ± 0.2 | 4.57 ± 0.24 | – | –
50 | ELAPDFVGDILWEHLEILQKEDVK [ETS1] | 3.95 ± 0.48 | 4.17 ± 0.29 | – | –
51 | HIKEILITAGGENVPPIPVETLVK [ACSBG2] | 2.71 ± 0.38 | 2.88 ± 0.2 | – | –
52 | YTFGSNQHGQLGTNTRRGSRAPCK [NEK8] | 4.27 ± 0.52 | 4.22 ± 0.39 | – | –
53 | PLPQIPNLPFWVKEKANSLKNEIQ [SPATS1] | 2.79 ± 0.45 | 3.4 ± 0.3 | – | –
54 | NHLQTHDPNKMAFGCEECGKKYNT [PLAGL1] | 4.14 ± 0.16 | 4.77 ± 0.27 | – | –
55 | HESQQLATETQALAQRTQQDSTRT [TEKT4] | 5.41 ± 0.23 | 5.43 ± 0.074 | – | –
56 | EVETEGPESADTGDKSESPDEANV [TOR1AIP2] | 5.32 ± 0.41 | 5.58 ± 0.3 | – | –
57 | PDDKLTLFCEVSVVQDSVNISGHT [SPOPL] | 2.47 ± 0.52 | 2.81 ± 0.49 | – | –
58 | LQLLREENRALQQLLEQKQAYWAQ [CBY2] | 2.62 ± 0.18 | 2.94 ± 0.31 | – | –
59 | HSEILKYFQSVTSNRWLMVKIFLI [STX5] | 2.32 ± 0.36 | 2.4 ± 0.43 | – | –
60 | VTFKLDDGAISAHKPLLICSCEWM [RHOBTB1] | 3.08 ± 0.33 | 2.56 ± 0.62 | – | –
61 | VTAEVDLFGDAFAASPGEAPAASE [SNAP91] | 5.02 ± 0.26 | 5.02 ± 0.16 | – | –
62 | KYSLLKLTALLEKYTPSNKHGFSW [DLC1] | 2.65 ± 0.42 | 2.6 ± 0.61 | – | –
63 | LGPSLEDLFDLCDRTFTLKTVLMI [CSNK1G1] | 2.69 ± 0.82 | 2.56 ± 0.9 | – | –
64 | AAFQTILTEIYRIVSQKQMSDRRE [RAB11A] | 2.77 ± 0.42 | 2.52 ± 0.36 | – | –
65 | EVMERDAKDYADSIHAIFVETSAK [RAB22A] | 4.15 ± 0.28 | 4.13 ± 0.24 | – | –
66 | GPGTPTGPSLPSKRESPGVGGGSG [ZBTB22] | 5.14 ± 0.31 | 4.96 ± 0.27 | – | –
67 | VSGDLTKEDIDLIDILWRQDIDLG [NFE2L1] | 3.02 ± 0.78 | 3.58 ± 0.61 | – | –
68 | ILHIPQVTKLCVQFLNDQISVQNY [KLHL14] | 2.54 ± 0.45 | 2.51 ± 0.52 | – | –
69 | PRRESLLRGLCRPLRPLLGFRESD [C6orf223] | 2.36 ± 0.46 | 2.13 ± 0.43 | – | –

Row | Sequence | protein stability index [1] | protein stability index [2] | protein stability index (treatment: DMSO, c terminus: native) | protein stability index (treatment: MLN4924 1 uM, 8 h, c terminus: native)
70 | KNFFKKAAAALFGGKKDKARYIDT [PLK2] | 1.95 ± 0.33 | 2.4 ± 0.63 | – | –
71 | DNLLAAADKYALERLKVMCEEALC [SPOPL] | 2.75 ± 0.32 | 2.78 ± 0.15 | – | –
72 | ERLLAVAERYGLSGSDVLDNVAYA [RAD51] | 2.8 ± 0.23 | 2.95 ± 0.094 | – | –
73 | FANGHTYHINSISVNSDCETYMSA [PPP2R2C] | 2.68 ± 0.69 | 2.63 ± 0.23 | – | –
74 | RVDQDKDKDCSLDCAGSPQKPLCA [SMOC2] | 5.39 ± 0.34 | 5.31 ± 0.32 | – | –
75 | RERREEDRAPAEQVPRSPVIKISY [PWWP2B] | 4.34 ± 0.34 | 4.08 ± 0.18 | – | –
76 | ENVLHFKAQGHGAKGDNVYEFHLE [HACD3] | 3.57 ± 0.3 | 3.79 ± 0.17 | – | –
77 | PGFDRGQFHKQIAVMRGQILNLTQ [PI4K2A] | 2.56 ± 0.21 | 2.56 ± 0.28 | – | –
78 | VHIETFTTRHGEVGSALHRESFTS [C10orf62] | 2.57 ± 0.35 | 2.47 ± 0.58 | – | –
79 | FNYSVGFKDLNESLNALEDQDLDA [APBB1IP] | 4.13 ± 0.33 | 3.98 ± 0.68 | – | –
80 | KDAAKQIAWIKDKLLHIYYQNSID [PDS5B] | 1.78 ± 0.31 | 2.39 ± 0.26 | – | –
81 | ATTSASDSLKPEQLDIEEEGRPGA [TFE3] | 5.5 ± 0.23 | 5.35 ± 0.12 | – | –
82 | EHGYENMNHFTVNLNREEKIIREI [TRIM55] | 3.64 ± 0.19 | 3.85 ± 0.27 | – | –
83 | LTMTFPAGIVRVFSGTPPPPVLSF [FCHO1] | 2.92 ± 0.5 | 3.13 ± 0.54 | – | –
84 | ALSLLELLGFNLTFVFLASLLVLI [CLCN6] | 3.23 ± 0.93 | 2.69 ± 0.97 | – | –
85 | DCLKACQEQIEAVLLNSLQQYRQD [CCND2] | 2.32 ± 0.35 | 2.33 ± 0.28 | – | –
86 | QDIDLGAGREVFDYSHRQKEQDVE [NFE2L1] | – | 5.05 ± 0.84 | – | –
87 | NYEKLSRGLRYYYDKNIIHKTAGK [ETS1] | 2.69 ± 0.15 | 2.89 ± 0.43 | – | –
88 | GIFKIEDSAQVARLWGIRKNRPAM [SPDEF] | 2.71 ± 0.4 | 2.86 ± 0.3 | – | –
89 | APFPNVSTSLLTSAGNRTHKARTR [ADAMTSL2] | 4.68 ± 0.25 | 4.64 ± 0.29 | – | –
